Results as given in article PMC8880691, “Impact of Linker Modification and PEGylation of Vancomycin Conjugates on Structure-Activity Relationships and Pharmacokinetics” (Pharmaceuticals, 2022).
Structures can show the parent of a compound that is named as a salt.

Legend:
[1] = system: erythrocytes; type: cell-based, human
Method: To determine the toxicity to red blood cells and thus confirm the selectivity to bacteria, a hemoglobin release assay was carried out with VAN1, VAN2 and VAN3, as well as the PEGylated conjugate, VAN:PEG1.
To exclude lytic activity and to evaluate the toxicological potential of the conjugates, hemolysis studies were performed as previously described. Briefly, fresh heparinized blood of four male, fasted volunteers was taken, and erythrocytes were purified by centrifugation of the blood at 2500 rpm for 10 min. The supernatant was removed, and the resulting pellet was washed with PBS at least three times, until the supernatant remained clear. The conjugates were serially diluted from stock solutions (in phosphate-buffered saline) in a 96-well plate at concentrations ranging from 120 µg/mL to 0.23 µg/mL (VAN1) or 16 µg/mL to 0.03 µg/mL (VAN2, VAN3 and VAN:PEG1), resulting in a final volume of 50 µL. A solution of Triton®X-100 in PBS was used as positive control. Finally, 50 µL of the washed erythrocytes was loaded into each well. After incubation for 30 min at 37 °C, 75 µL PBS was added to each well, and the plates were centrifuged for 5 min at 4000 rpm. A total of 50 µL of the supernatants was then transferred into a new polystyrene, flat-bottom 96-well plate, and the absorbances were measured at 554 nm using a Tecan microplate reader. Hemolysis was calculated as follows: Hemolysis %=100×Asubstance−Aneg. control/ATriton−Aneg. control
The negative control was erythrocytes, treated as described but using only PBS.

[2] = Biodistribution study with excised organs, 125I-labeled compounds; type: in vivo, female Wistar rats; details: rat
Method: (§1) Molecular imaging and biodistribution studies were performed for VAN1 and VAN2, as well as for VAN:PEG1 and VAN:PEG2, using female Wistar rats.
To further compare the two modification strategies, the biodistribution profiles of VAN1, VAN2 and vancomycin were compared using excised organs. This study confirms significant liver accumulation in most cases.
(§2) For biodistribution and pharmacokinetic studies, compounds were radiolabeled with ^125I. The previously described method for the insertion of an additional D-tyrosine to the N-terminus of the peptide moiety was used to enable […] substitution for VAN1 and VAN2 [11]. For the PEGylated derivatives, VAN:PEG1 and VAN:PEG2, tyrosine-modified FU002y was used to synthesize the intermediate. Radiolabeling was performed using the chloramine T method as previously described. Thus, a 1 mM stock solution of the respective compound in phosphate buffer/dimethyl sulfoxide was prepared. The required amount of the radionuclide (^125I) was added to a mixture of 25 μL of the stock solution and 25 μL of phosphate buffer (0.25 mM; pH = 7.5). Purification of the labeled compounds was performed by semi-preparative HPLC. Analysis was conducted by radio HPLC (Agilent 1100 series) using a Chromolith® Performance RP-18e, 100 × 3 mm column, applying a linear gradient of 0.1% TFA in water (eluent A) to 0.1% TFA in acetonitrile (eluent B) within 5 min (flow rate, 2 mL/min; UV absorbance, λ = 214 nm; γ-detection). Animals were anaesthetized by isoflurane inhalation, and appropriate amounts of the radiolabeled conjugate dissolved in 100 µL 0.9% NaCl solution were injected into the tail vein. Cumulative scintigraphic images were taken after 10 min and 1, 2, 3, 5 and 24 h. For the biodistribution studies, animals were sacrificed at the indicated points in time. The activity of the weighed organs was measured in comparison with standards. Tissue-associated activity was related to the total injected dose (ID) and expressed as a percentage of the total injected dose per gram of tissue (%ID/g). The data were calculated afterwards to obtain the respective organ/organ or organ/blood ratios.

[3] = Molecular imaging (scintigraphy) of 125I-labeled compounds; type: in vivo, female Wistar rats; details: rat
Method: as §1, §2

[4] = system: B. subtilis DSM10; experiment: microbe, parasite or virus in culture; type: cell-based
Method: (§3) The conjugates were tested in microdilution assays according to CLSI (Clinical and Laboratory Standards Institute) and EUCAST (European Committee on Antimicrobial Susceptibility Testing) guidelines on both vancomycin-sensitive and-resistant Gram-positive bacterial strains.
(§4) Antimicrobial activity assays were performed by microdilution and conducted in accordance with CLSI and EUCAST guidelines. Serial dilutions in MHB II (cation adjusted) were performed on 96-well plates using water-stock solutions of the compounds at different concentrations. Overnight cultures of bacterial strains were used to obtain bacteria in the logarithmic growth phase. Bacteria were adjusted to a McFarland corresponding to 1 × 10^8 cfu/mL. After a 1:100 dilution, the culture broth was loaded onto the 96-well polypropylene plates, resulting in a final bacterial concentration of 5 × 10^5 cfu/mL. Plates were then incubated at 37 ± 1 °C for 18–24 h. The MICs were assessed as the lowest concentration without visible growth.
Table S1. Minimum inhibitory concentration against B. subtilis DSM10.
activity. Shown is the median of at least three independent measurements (range is shown in brackets).
Compound Minimum Inhibitory Concentration
against B. subtilis DSM10 [mg/L] […]
[mg/L] [% hemolysis] [% hemolysis] [% hemolysis] […]

[5] = system: vanC vancomycin-resistant enterococci; experiment: Microdilution assay on vancomycin-resistant strains of the vanC type; type: cell-based; details: resistant strains of the vanC type (low-level resistant)
Method: as §3, §4

[6] = system: vanB vancomycin-resistant enterococci; experiment: Microdilution assay on vancomycin-resistant strains of the vanB type; type: cell-based
Method: as §3, §4

[7] = 10 min post injection, tail vein, from %ID/g of excised organs

Row | SMILES | hemolytic activity [1] | Ratio Kidney/Blood ([2]; in vivo) | Ratio Liver/Blood ([2]; in vivo) | Ratio Liver/Kidney ([2]; in vivo) | pharmacokinetic behavior by molecular imaging ([3]; in vivo) | Minimum Inhibitory Concentration against B. subtilis DSM10 [4] | overcoming the molar-resistance breakpoint (EUCAST), vanC type [5] | overcoming the molar-resistance breakpoint (EUCAST), vanB type [6] | Ratio Kidney/Blood [2, 7] | Ratio Liver/Blood [2, 7] | Ratio Liver/Kidney [2, 7] | pharmacokinetic behavior by molecular imaging ([3]; 125I-labeled, tail vein injection, scintigraphic images 10 min to 24 h) | MIC ([4]; Bacillus subtilis, DSM10, read-out: Minimum Inhibitory Concentration against B. subtilis DSM10) [µg/mL]
1 | CC(C)C[C@H](C(=O)N[C@H]1C(=O)N[C@@H](CC(N)=O)C(=O)N[C@H]2C(=O)N[C@H]3C(=O)N[C@H](C(=O)N[C@H](C(=O)O)c4cc(O)cc(O)c4-c4cc3ccc4O)[C@H](O)c3ccc(c(Cl)c3)Oc3cc2cc(c3O[C@@H]2O[C@H](CO)[C@@H](O)[C@H](O)[C@H]2O[C@H]2C[C@](C)(N)[C@H](O)[C@H](C)O2)Oc2ccc(cc2Cl)[C@H]1O)N(C)C(=O)CCCCCCCCCCN1C(=O)CC(SC[C@H](NC(=O)[C@H](CCCNC(=N)N)NC(=O)[C@H](CCCNC(=N)N)NC(=O)[C@H](CCCNC(=N)N)NC(=O)[C@H](CCCNC(=N)N)NC(=O)[C@H](CCCNC(=N)N)NC(=O)[C@@H](N)CCCNC(=N)N)C(N)=O)C1=O (stereo partly drawn) [VAN1] | None of the compounds showed significant hemolytic activity | 2.22 | 10.13 | 4.47 | accumulates quickly in the liver | 1 (0.5–1) mg/L |  |  |  |  |  |  | 
2 | CC(C)C[C@H](C(=O)N[C@H]1C(=O)N[C@@H](CC(N)=O)C(=O)N[C@H]2C(=O)N[C@H]3C(=O)N[C@H](C(=O)N[C@H](C(=O)O)c4cc(O)cc(O)c4-c4cc3ccc4O)[C@H](O)c3ccc(c(Cl)c3)Oc3cc2cc(c3O[C@@H]2O[C@H](CO)[C@@H](O)[C@H](O)[C@H]2O[C@H]2C[C@](C)(N)[C@H](O)[C@H](C)O2)Oc2ccc(cc2Cl)[C@H]1O)N(C)C(=O)CCOCCOCCOCCOCCOCCOCCOCCOCCOCCOCCOCCOCCNC(=O)CCN1C(=O)CC(SC[C@H](NC(=O)[C@H](CCCNC(=N)N)NC(=O)[C@H](CCCNC(=N)N)NC(=O)[C@H](CCCNC(=N)N)NC(=O)[C@H](CCCNC(=N)N)NC(=O)[C@H](CCCNC(=N)N)NC(=O)[C@@H](N)CCCNC(=N)N)C(N)=O)C1=O (stereo partly drawn) [VAN2] | None of the compounds showed significant hemolytic activity | 10.09 | 9.25 | 0.92 | rapid liver accumulation can still be observed, in addition to renal elimination | 2 (1–4) mg/L | able to overcome the molar-resistance breakpoint | able to overcome the molar-resistance breakpoint |  |  |  |  | 
3 | CC(C)C[C@H](C(=O)N[C@H]1C(=O)N[C@@H](CC(N)=O)C(=O)N[C@H]2C(=O)N[C@H]3C(=O)N[C@H](C(=O)N[C@H](C(=O)O)c4cc(O)cc(O)c4-c4cc3ccc4O)[C@H](O)c3ccc(c(Cl)c3)Oc3cc2cc(c3O[C@@H]2O[C@H](CO)[C@@H](O)[C@H](O)[C@H]2O[C@H]2C[C@](C)(N)[C@H](O)[C@H](C)O2)Oc2ccc(cc2Cl)[C@H]1O)N(C)C(=O)CN1C(=O)CC(SC[C@H](NC(=O)[C@H](CCCNC(=N)N)NC(=O)[C@H](CCCNC(=N)N)NC(=O)[C@H](CCCNC(=N)N)NC(=O)[C@H](CCCNC(=N)N)NC(=O)[C@H](CCCNC(=N)N)NC(=O)[C@@H](N)CCCNC(=N)N)C(N)=O)C1=O (stereo partly drawn) [VAN3] | None of the compounds showed significant hemolytic activity |  |  |  |  | < 0.125 mg/L |  |  |  |  |  |  | 
4 | CN[C@H](CC(C)C)C(=O)N[C@H]1C(=O)N[C@@H](CC(N)=O)C(=O)N[C@H]2C(=O)N[C@H]3C(=O)N[C@H](C(=O)N[C@H](C(=O)O)c4cc(O)cc(O)c4-c4cc3ccc4O)[C@H](O)c3ccc(c(Cl)c3)Oc3cc2cc(c3O[C@@H]2O[C@H](CO)[C@@H](O)[C@H](O)[C@H]2O[C@H]2C[C@](C)(N)[C@H](O)[C@H](C)O2)Oc2ccc(cc2Cl)[C@H]1O [Vancomycin, vancomycin hydrochloride] |  |  |  |  |  |  |  |  | 2.16 | 0.36 | 0.17 | fast renal elimination | 0.25
